Key:
Assay in all cases: ELISA
[1] = biological target: T1, CD27-huFc (UniProt P26842 20-191)
T1 sequence (looked up): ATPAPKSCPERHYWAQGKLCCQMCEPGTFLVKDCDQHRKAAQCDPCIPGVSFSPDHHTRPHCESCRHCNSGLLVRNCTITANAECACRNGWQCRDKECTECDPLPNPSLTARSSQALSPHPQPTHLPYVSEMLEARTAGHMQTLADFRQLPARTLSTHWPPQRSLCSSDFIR

[2] = biological target: T2, OX40-moFc (UniProt P43489 29-214)
T2 sequence (looked up): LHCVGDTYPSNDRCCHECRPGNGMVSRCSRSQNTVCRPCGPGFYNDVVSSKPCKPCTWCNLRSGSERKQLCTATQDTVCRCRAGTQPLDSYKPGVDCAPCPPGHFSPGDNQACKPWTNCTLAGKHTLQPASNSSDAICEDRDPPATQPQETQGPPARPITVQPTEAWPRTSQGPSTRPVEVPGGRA

[3] = biological target: T3, CD27-moFc (UniProt P26842 20-191)
T3 sequence (looked up): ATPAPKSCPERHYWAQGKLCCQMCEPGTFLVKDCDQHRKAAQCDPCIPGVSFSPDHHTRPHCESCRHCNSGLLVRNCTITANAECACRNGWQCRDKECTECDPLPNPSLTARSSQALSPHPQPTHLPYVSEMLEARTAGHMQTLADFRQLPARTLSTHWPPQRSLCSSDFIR

Measured: EC50

B1: scCD27L-scOX40L-Fc (Fc fusion, human)
chain 1: SLGWDVAELQLNHTGPQQDPRLYWQGGPALGRSFLHGPELDKGQLRIHRDGIYMVHIQVTLAICSSTTASRHHPTTLAVGICSPASRSISLLRLSFHQGCTIASQRLTPLARGDTLCTNLTGTLLPSRNTDETFFGVQWVRPGGSLGWDVAELQLNHTGPQQDPRLYWQGGPALGRSFLHGPELDKGQLRIHRDGIYMVHIQVTLAICSSTTASRHHPTTLAVGICSPASRSISLLRLSFHQGCTIASQRLTPLARGDTLCTNLTGTLLPSRNTDETFFGVQWVRPGGSLGWDVAELQLNHTGPQQDPRLYWQGGPALGRSFLHGPELDKGQLRIHRDGIYMVHIQVTLAICSSTTASRHHPTTLAVGICSPASRSISLLRLSFHQGCTIASQRLTPLARGDTLCTNLTGTLLPSRNTDETFFGVQWVRP
chain 2: QVSHRYPRIQSIKVQFTEYKKEKGFILTSQKEDEIMKVQNNSVIINCDGFYLISLKGYFSQEVNISLHYQKDEEPLFQLKKVRSVNSLMVASLTYKDKVYLNVTTDNTSLDDFHVNGGELILIHQNPGEFCVLGGGGSGGGGSGGGGSQVSHRYPRIQSIKVQFTEYKKEKGFILTSQKEDEIMKVQNNSVIINCDGFYLISLKGYFSQEVNISLHYQKDEEPLFQLKKVRSVNSLMVASLTYKDKVYLNVTTDNTSLDDFHVNGGELILIHQNPGEFCVLGGGGSGGGGSGGGGSQVSHRYPRIQSIKVQFTEYKKEKGFILTSQKEDEIMKVQNNSVIINCDGFYLISLKGYFSQEVNISLHYQKDEEPLFQLKKVRSVNSLMVASLTYKDKVYLNVTTDNTSLDDFHVNGGELILIHQNPGEFCVL
0.3 nM: all assays above

Reference: PMC8786347 (Oncoimmunology, 2022)
